Results from patent US20150259684.

Target: T1, NM Cas9 (Neisseria meningitidis) (UniProt C9X1G5)
T1 sequence: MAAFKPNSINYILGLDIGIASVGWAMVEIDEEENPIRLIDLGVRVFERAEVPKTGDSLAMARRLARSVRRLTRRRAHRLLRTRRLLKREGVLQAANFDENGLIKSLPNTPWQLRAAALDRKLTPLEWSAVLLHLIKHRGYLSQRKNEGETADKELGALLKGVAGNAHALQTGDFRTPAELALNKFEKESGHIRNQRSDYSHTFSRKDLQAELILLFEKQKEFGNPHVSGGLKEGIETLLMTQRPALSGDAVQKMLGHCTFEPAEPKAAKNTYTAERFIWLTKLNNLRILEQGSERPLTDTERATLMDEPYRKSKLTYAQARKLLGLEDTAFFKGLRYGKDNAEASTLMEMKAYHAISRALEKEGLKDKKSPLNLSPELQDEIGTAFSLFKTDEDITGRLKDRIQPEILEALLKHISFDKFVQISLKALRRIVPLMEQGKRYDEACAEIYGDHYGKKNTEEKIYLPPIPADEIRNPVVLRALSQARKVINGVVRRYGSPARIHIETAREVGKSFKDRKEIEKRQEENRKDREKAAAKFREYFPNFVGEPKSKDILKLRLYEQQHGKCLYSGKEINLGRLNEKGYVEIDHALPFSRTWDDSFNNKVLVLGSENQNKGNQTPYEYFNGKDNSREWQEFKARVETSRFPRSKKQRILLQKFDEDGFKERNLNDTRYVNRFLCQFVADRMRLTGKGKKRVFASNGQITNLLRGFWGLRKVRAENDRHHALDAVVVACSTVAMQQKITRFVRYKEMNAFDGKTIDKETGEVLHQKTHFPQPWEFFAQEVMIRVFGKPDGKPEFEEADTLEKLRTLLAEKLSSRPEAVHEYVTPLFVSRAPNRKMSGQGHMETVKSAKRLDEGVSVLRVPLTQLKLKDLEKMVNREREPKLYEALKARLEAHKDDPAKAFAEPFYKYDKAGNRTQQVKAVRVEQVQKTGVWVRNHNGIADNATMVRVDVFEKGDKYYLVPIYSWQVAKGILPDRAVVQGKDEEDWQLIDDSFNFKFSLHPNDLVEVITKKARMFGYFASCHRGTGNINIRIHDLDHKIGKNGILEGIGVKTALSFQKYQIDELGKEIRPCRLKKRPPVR
Experiment: cell_activity
Conditions: PAM NCCAGGTN depleted only 4-fold; protospacer for this value not stated

## UACCAUCUCAAGCUUGUUGAGUUGUAGCUCCCUUUCUCAUUUCGCAGUGCUACAAU / TACCATCTCAAGCTTGTTGANCCAGGTN / NACCTGGNTCAACAAGCTTGAGATGGTA
  activity (fold depletion): 4
